According to patent US20240075093A1 (VIRGINIA TECH INTELLECTUAL PROPERTIES, published 2024):

Molecular target: p110β (isolated PI3K protein subunit, cell-free kinase ELISA) (UniProt P42338 1-1070, limits assumed)
Assay: cell-based or functional assay

Chain of p110β (isolated PI3K protein subunit, cell-free kinase ELISA) (P42338 whole entry): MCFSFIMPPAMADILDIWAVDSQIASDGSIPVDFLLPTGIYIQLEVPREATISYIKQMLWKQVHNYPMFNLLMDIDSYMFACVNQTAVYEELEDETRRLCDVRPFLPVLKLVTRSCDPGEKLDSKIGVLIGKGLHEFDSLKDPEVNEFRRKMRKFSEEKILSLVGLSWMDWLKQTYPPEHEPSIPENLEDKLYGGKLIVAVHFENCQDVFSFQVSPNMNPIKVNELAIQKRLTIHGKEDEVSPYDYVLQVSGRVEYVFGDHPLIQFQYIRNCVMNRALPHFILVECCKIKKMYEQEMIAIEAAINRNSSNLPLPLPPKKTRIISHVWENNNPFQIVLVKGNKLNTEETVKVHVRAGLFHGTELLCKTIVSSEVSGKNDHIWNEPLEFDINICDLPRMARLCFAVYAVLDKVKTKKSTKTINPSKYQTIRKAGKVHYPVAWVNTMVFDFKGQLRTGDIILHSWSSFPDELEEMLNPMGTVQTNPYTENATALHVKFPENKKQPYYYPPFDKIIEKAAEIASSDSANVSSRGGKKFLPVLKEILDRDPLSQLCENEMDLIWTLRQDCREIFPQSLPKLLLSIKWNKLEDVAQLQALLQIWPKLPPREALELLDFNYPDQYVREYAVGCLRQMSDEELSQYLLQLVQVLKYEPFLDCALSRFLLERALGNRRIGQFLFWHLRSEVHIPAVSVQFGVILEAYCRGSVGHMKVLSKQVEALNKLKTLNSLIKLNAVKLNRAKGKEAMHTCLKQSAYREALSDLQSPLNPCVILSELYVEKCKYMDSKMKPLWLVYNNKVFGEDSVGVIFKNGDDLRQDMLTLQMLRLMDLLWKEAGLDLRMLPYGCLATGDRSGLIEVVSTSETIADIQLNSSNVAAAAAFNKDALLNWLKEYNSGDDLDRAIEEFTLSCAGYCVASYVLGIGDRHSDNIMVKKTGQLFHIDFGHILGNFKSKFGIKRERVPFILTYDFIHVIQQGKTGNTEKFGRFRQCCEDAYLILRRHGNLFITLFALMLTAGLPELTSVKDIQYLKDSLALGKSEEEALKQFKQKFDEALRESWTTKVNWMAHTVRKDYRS

Binder: RQPKIWFPNRRKPWKKTKKSTKTINPSKYQTIRK [Ante-Selectide-18]
- activity of the p110b catalytic subunit, measured via ELISA; Half Maximal Inhibitory Concentration (IC50): 105 nM
